Results reported in paper PMC10066393, “Structural insights into the mechanism of leptin receptor activation” (Nature Communications, 2023).
Each block holds one molecule with its values, some of them ahead of it.

How the values were obtained:
[1] = biological target: Myc-tagged full-length human LepR, wild type (human) (UniProt P48357)
[2] = biological target: Myc-tagged full-length human LepR, wild type (human) (UniProt P48357); remark: listed apart in the source
[3] = biological target: mouse LepR^D1-D7-zip (Mus musculus | not stated) (UniProt P48356)
mouse leptin [4] = biological target: T1, mouse leptin (Mus musculus, UniProt P41160 22-167); assay: cryo-EM structure; SEC-purified leptin–LepR-zip complex cross-linked with 1 mM BS3, 1–2 mg/ml in PBS, 0.01% fluorinated octyl maltoside; single particle cryo-EM, AlphaFold models docked and refined; conditions: both partners purified
T1 construct: leptin, Mus musculus, produced in E. coli; Two leptin molecules stand in the 2:2 complex with the zippered LepR dimer; also called M. musculus leptin; source: Escherichia coli produced

mouse leptin [5] = biological target: T1, mouse leptin; assay: SEC; mouse leptin incubated with purified LepR-zip overnight at 4 °C at a leptin:LepR ratio of 4:1; Superdex 200 in PBS pH 7.2; co-elution; conditions: both partners purified

Chain of Myc-tagged full-length human LepR, wild type (human) (P48357 22-1165): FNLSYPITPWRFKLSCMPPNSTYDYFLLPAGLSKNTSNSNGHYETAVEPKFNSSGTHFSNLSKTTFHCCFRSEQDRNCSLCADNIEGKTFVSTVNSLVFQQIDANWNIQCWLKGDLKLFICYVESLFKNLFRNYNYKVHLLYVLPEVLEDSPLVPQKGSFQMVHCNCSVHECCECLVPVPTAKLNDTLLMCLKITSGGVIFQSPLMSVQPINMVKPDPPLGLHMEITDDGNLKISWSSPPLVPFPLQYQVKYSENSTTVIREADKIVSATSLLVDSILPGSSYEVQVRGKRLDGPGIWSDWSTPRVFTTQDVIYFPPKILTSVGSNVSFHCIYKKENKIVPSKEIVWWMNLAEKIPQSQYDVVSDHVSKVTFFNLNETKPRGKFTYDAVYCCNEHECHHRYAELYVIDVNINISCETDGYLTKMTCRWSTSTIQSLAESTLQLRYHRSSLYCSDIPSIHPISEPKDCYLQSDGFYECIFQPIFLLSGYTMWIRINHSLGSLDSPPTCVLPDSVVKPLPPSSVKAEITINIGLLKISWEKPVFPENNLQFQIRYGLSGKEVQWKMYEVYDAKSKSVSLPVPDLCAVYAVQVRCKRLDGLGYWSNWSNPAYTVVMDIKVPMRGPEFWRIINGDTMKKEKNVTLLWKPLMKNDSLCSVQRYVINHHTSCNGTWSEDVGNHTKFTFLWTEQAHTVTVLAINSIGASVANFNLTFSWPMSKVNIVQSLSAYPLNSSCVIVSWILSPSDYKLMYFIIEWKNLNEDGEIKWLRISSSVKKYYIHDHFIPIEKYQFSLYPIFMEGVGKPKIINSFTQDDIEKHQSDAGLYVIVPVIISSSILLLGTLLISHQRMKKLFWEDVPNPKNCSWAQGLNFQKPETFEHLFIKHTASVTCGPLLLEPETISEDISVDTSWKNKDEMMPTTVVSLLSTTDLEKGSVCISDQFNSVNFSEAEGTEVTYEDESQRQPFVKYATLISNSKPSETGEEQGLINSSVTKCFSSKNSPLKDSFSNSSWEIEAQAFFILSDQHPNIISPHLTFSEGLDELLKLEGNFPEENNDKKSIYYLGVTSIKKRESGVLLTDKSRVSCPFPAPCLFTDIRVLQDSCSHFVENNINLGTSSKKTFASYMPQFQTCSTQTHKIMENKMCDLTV
T1 sequence (P41160 22-167): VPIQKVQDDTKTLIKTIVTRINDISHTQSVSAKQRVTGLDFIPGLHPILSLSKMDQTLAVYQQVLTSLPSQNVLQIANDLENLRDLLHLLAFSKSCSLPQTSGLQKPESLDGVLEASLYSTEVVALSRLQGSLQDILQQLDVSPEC

- phospho-STAT3 left, immunoblots, HEK-293T cells stably expressing hLepR, 10 nM WT leptin plus the variant, relative to WT leptin alone (% of WT leptin alone) [1]: 50
- reduction of phospho-SHP2 and phospho-ERK, immunoblots, HEK-293T cells stably expressing hLepR, 10 nM WT leptin plus the variant, 20 min [1]: 90 % reduction
Molecule: human leptin D23L/S117N (ligand)

- maximal phospho-STAT3 response, dose-response by phospho-flow cytometry, LepR-expressing HEK 293T cells, percent of WT leptin (% of WT leptin) [2]: 75
Molecule: human leptin K33A/Q34A/K35A (ligand)

- maximal phospho-STAT3 response, dose-response by phospho-flow cytometry, LepR-expressing HEK 293T cells, percent of WT leptin (% of WT leptin) [2]: 45
Molecule: human leptin S117N (ligand)

- activation of ERK in cells expressing mouse LepR (the whole receptor on cells, not the zip construct) [3]: 5%
- activation of SHP2 in cells expressing mouse LepR (the whole receptor on cells, not the zip construct) [3]: 20%
- activation of STAT3 in cells expressing mouse LepR (the whole receptor on cells, not the zip construct) [3]: 60%
Molecule: leptin S117A used on cells expressing mouse LepR (from UniProt P41160 22-167) (ligand)

More lines, now with the values behind:

B1: mouse LepR^D3-D7-zip (receptor)
chain: DVVYFPPKILTSVGSNASFHCIYKNENQIISSKQIVWWRNLAEKIPEIQYSIVSDRVSKVTFSNLKATRPRGKFTYDAVYCCNEQACHHRYAELYVIDVNINISCETDGYLTKMTCRWSPSTIQSLVGSTVQLRYHRRSLYCPDSPSIHPTSEPKNCVLQRDGFYECVFQPIFLLSGYTMWIRINHSLGSLDSPPTCVLPDSVVKPLPPSNVKAEITVNTGLLKVSWEKPVFPENNLQFQIRYGLSGKEIQWKTHEVFDAKSKSASLLVSDLCAVYVVQVRCRRLDGLGYWSNWSSPAYTLVMDVKVPMRGPEFWRKMDGDVTKKERNVTLLWKPLTKNDSLCSVRRYVVKHRTAHNGTWSEDVGNRTNLTFLWTEPAHTVTVLAVNSLGASLVNFNLTFSWPMSKVSAVESLSAYPLSSSCVILSWTLSPDDYSLLYLVIEWKILNEDDGMKWLRIPSNVKKFYIHDNFIPIEKYQFSLYPVFMEGVGKPKIINGFTKDAIDKQQNDAGEELLSKNYHLENEVARLKK
notes: leptin receptor (LepR), Mus musculus, domains D3-D7, residues 330-839; GCN4 leucine zipper, C-terminal, stands in place of the transmembrane domain; Secreted with an N-terminal HA signal peptide from the vector pD649; Dimerised by the leucine zipper; source: Expi293F, transiently transfected, purified from supernatant (Ni-NTA, SEC)
- binding result (mouse leptin [4]): binds

B2: mouse LepR^D1-D7-zip (receptor)
chain: NLAYPISPWKFKLFCGPPNTTDDSFLSPAGAPNNASALKGASEAIVEAKFNSSGIYVPELSKTVFHCCFGNEQGQNCSALTDNTEGKTLASVVKASVFRQLGVNWDIECWMKGDLTLFICHMEPLPKNPFKNYDSKVHLLYDLPEVIDDSPLPPLKDSFQTVQCNCSLRGCECHVPVPRAKLNYALLMYLEITSAGVSFQSPLMSLQPMLVVKPDPPLGLHMEVTDDGNLKISWDSQTMAPFPLQYQVKYLENSTIVREAAEIVSATSLLVDSVLPGSSYEVQVRSKRLDGSGVWSDWSSPQVFTTQDVVYFPPKILTSVGSNASFHCIYKNENQIISSKQIVWWRNLAEKIPEIQYSIVSDRVSKVTFSNLKATRPRGKFTYDAVYCCNEQACHHRYAELYVIDVNINISCETDGYLTKMTCRWSPSTIQSLVGSTVQLRYHRRSLYCPDSPSIHPTSEPKNCVLQRDGFYECVFQPIFLLSGYTMWIRINHSLGSLDSPPTCVLPDSVVKPLPPSNVKAEITVNTGLLKVSWEKPVFPENNLQFQIRYGLSGKEIQWKTHEVFDAKSKSASLLVSDLCAVYVVQVRCRRLDGLGYWSNWSSPAYTLVMDVKVPMRGPEFWRKMDGDVTKKERNVTLLWKPLTKNDSLCSVRRYVVKHRTAHNGTWSEDVGNRTNLTFLWTEPAHTVTVLAVNSLGASLVNFNLTFSWPMSKVSAVESLSAYPLSSSCVILSWTLSPDDYSLLYLVIEWKILNEDDGMKWLRIPSNVKKFYIHDNFIPIEKYQFSLYPVFMEGVGKPKIINGFTKDAIDKQQNDAGEELLSKNYHLENEVARLKK
notes: leptin receptor (LepR), Mus musculus, complete extracellular domain D1-D7, residues 23-839; GCN4 leucine zipper, C-terminal, stands in place of the transmembrane domain; Secreted with an N-terminal HA signal peptide from the vector pD649; Dimerised by the leucine zipper; source: Expi293F, transiently transfected, purified from supernatant (Ni-NTA, SEC)
- binding result (mouse leptin [5]): binds
